Assay results taken from patent US20230272086A1 (CHIA TAI TIANQING PHARMACEUTICAL GROUP, published 2023).
Changes are numbered by the printed parent chain.

T1: recombinant protein containing hST2 extracellular domain with mouse antibody heavy chain Fc tag (hST2-ECD-mFc) (human)
T1 construct: Used for SPR and for ELISA of chimeric and humanized antibodies; also called human ST2 antigen
T1 chain: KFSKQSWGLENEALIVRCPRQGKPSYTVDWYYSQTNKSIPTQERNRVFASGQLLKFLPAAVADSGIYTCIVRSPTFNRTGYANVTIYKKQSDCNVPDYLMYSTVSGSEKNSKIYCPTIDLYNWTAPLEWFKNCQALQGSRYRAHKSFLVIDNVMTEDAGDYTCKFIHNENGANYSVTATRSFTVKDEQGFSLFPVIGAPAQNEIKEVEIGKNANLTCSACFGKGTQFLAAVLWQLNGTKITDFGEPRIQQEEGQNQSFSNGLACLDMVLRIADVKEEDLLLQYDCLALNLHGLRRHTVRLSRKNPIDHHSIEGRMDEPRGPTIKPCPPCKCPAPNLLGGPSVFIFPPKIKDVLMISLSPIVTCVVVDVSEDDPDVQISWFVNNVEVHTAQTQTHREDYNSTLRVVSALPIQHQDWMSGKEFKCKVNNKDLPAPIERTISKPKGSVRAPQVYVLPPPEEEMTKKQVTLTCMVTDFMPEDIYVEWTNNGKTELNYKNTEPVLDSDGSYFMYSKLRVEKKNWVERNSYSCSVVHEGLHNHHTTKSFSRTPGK

T2: cynomolgus monkey ST2 on HEK293T-Cyno-ST2-NFκB-Luciferase cells (cynomolgus monkey, UniProt Q01638 19-556 (human entry))
T2 chain: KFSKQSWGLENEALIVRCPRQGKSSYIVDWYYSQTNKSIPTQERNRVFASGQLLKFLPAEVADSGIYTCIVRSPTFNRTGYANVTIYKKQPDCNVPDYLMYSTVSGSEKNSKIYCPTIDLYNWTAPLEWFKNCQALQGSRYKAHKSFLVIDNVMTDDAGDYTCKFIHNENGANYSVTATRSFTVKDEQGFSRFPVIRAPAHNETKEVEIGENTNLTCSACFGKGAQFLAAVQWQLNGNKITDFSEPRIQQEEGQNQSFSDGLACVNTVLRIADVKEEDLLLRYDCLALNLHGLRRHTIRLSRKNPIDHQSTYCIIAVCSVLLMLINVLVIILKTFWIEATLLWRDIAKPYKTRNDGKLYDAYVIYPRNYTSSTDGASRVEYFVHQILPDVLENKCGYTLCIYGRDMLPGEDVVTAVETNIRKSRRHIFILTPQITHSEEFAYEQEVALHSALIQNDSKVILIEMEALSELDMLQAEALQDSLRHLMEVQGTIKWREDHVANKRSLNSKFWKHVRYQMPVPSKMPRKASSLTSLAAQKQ

B1: RG6149 (antibody Ab2 in CN104334582, prepared in-house) (antibody, human IgG2, kappa, V domains shown)
VH: EVQLVQSGAEVKKPGESLKISCKGSGYSFTNYWIGWVRQMPGKGLEWMGIIYPGNSDTRFSPSFQGQVTISADKSITTAYLQWSSLKASDTAMYYCARHGTSSDYYGLDVWGQGTTVTVSS
VL: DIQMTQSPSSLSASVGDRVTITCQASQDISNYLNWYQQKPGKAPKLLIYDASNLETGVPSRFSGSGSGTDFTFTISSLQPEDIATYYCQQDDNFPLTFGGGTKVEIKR
notes: Control anti-ST2 antibody
B2: Chimeric 31C8 (antibody, human IgG2, kappa, V domains shown)
VH: QVQLQQSGPELVRPGASVTLSCKASGYIFIDSEMHWVKQTPVHGLEWIGAIDPETGDTVYNQKFKGKATLTADKSSSTASMELSSLTSEDSAVYYCTGSTTDYYFAYWGQGTTLTVSS
VL: DIVMTQAAFSNPVTLGTSASISCRSSKSLLHSNGIIYLYWYLQKPGQSPQLLIYQMSNLASGVPDRFSSSGSGTDFTLRISRVEAEDVGVYYCAQNLELPFTFGSGTKLEIKR
notes: also called xi31C8
B3: Chimeric 8F4 (antibody, human IgG2, kappa, V domains shown)
VH: B2 VH with P9A, Y27H, I30T, S32Y, H35Q, I51F, V59A, S80Y, T97S, T113S
VL: B2 VL with I2V, A7T
notes: also called xi8F4
B4: Chimeric 26A1 (antibody, human IgG2, kappa, V domains shown)
VH: B2 VH with P9A, G26D, I30T, M34I, P41L, V59A, S80Y, D90G, T97S, Y103C
VL: B2 VL
notes: also called xi26A1
B5: Chimeric 7D1 (antibody, human IgG2, kappa, V domains shown)
VH: QVQLQQSGAELVRPGASVTLSCKASGYTFTDYEMHWVKQTPVHGLDWIGTIDPETGDTAYNQKFKGRATLTADKSSSTAYMELSSLTSEDSAVYYCTRYSYTNSPYGMDYWGQGTSVTVSS
VL: DVVMTQTPKFLLVSAGDRVTITCKASQSVSNDVAWYQQKPGQSPKLLIYYASNRYTGVPDRFTGSGYGTDFTFTINTVQAEDLAVYFCQQDYSSPYTFGGGTKLEIKR
notes: also called xi7D1
B6: Chimeric 3C6 (antibody, human IgG2, kappa, V domains shown)
VH: QVQLQQSGAEVVRPGASVTLSCKASDYTITDYEMHWVKQTPVHGLEWIGAIDPETGDTAYSQNFKGKATLTADESSSTAYMELSSLTSEDSAVYYCSRSATDYYFASWGQGTTLTVSS
VL: B2 VL with F9I, I21M, I36T, Q47H, R79K
notes: also called xi3C6
B7: Chimeric 17E2 (antibody, human IgG2, kappa, V domains shown)
VH: QVQLQQSGAELVRPGASVTLSCKASGYTFTDYEMHWVKQTPVLGLEWIGAIDPETGDTAYNQKFKGKATLTADKSSSTAYMELSSLASEDSAVYYCIRVDSNYDYFDYWGQDTTLTVSS
VL: DIVLTQSPPILSASPGEKVTMTCRASSSVSYMHWYQQKPGSSPKPWIYDTSNLASGVPARFSGSGSGTSYSLTISRVEAEDAATYYCQQWSSNPLTFGAGTKLELKR
notes: also called xi17E2

Target: T1, recombinant protein containing hST2 …
Experiment: SPR (Biacore T200), hST2-ECD-mFc captured by anti-mouse IgG on CM5, antibody as analyte, 1:1 model
Description: The reaction signals were detected in real time using a Biacore instrument (Cytiva, BiacoreT200), and then an association-dissociation curve was obtained. After the completion of dissociation in each cycle, the biochip was regenerated with a regeneration solution for the next capture; the procedure was repeated until the affinity of the different antibodies for ST2 was determined. The acquired data were finally analyzed using the GE BIAevaluation software with a 1:1 (Langmuir) binding model to determine the association rate constants ka (kon) and the dissociation rate constants kd (koff), and the dissociation constants KD were given by KD = kd/ka. The determined affinity of the anti-ST2 antibody for human ST2 antigen (hST2-ECD-mFc), cynomolgus monkey ST2 antigen (Cyno-ST2-his, Sino biological, 90915-C08H) and the determined affinity of the anti-ST2 chimeric antibodies for ST2 were shown in Table 5.

First: B1
Second: B2
The Kd of the first is 3.9-fold higher: 0.0686 nM for the first, 0.0177 nM for the second.

Going from B3 to B4, the Kd falls from 0.0933 nM to 0.0299 nM (3.1-fold).

Compared with B5, B6 is 1.7-fold lower in Kd: 0.145 nM for the first, 0.0872 nM for the second.

B7 showed a Kd of 0.0541 nM.

Target: T2, cynomolgus monkey ST2 on …
Experiment: flow cytometry on HEK293T-Cyno-ST2-NFκB-Luciferase cells
Description: The binding capacity of the anti-ST2 antibodies to hST2-overexpressing cell lines and cyno-ST2-overexpressing cell lines was analyzed using an FACS-based method through binding assays with the hST2 (SEQ ID NO:1)-overexpressing HEK293T cell line (HEK293T-hST2-NFκB-Luciferase) and the cynomolgus monkey ST2 (SEQ ID NO: 10)-overexpressing HEK293T cell line (HEK293T-Cyno-ST2-NFKB-Luciferase). HEK293 cells were transfected with the pLenti6.3- hST2 plasmid and the pLenti6.3-NFκB-luciferasae plasmid using a lentiviral transfection system to construct the cell line HEK293T-hST2-NFκB-Luciferase. HEK293T cells were transfected with the pLenti6.3-cynoST2 plasmid and the pLenti6.3-NFκB-luciferasae plasmid to construct the cell line HEK293T-Cyno-ST2-NFκB-Luciferase.
3 × 10⁵ HEK293T-hST2-NFκB-Luciferase or HEK293T-Cyno-ST2-NFκB-Luciferase cells were added to a 96-well culture plate. Serially diluted anti-ST2 antibodies (serially diluted 4-fold from an initial concentration of 667 nM to 8 concentrations in binding assays with the HEK293T-hST2-NFκB-Luciferase cells; serially diluted 4-fold from an initial concentration of 400 nM to 8 concentrations in binding assays with the HEK293T-Cyno-ST2-NFκB-Luciferase cells) were added to the cell suspensions. After the plate was incubated at room temperature for 60 min, the cells were washed 3 times with PBS. […] The cells were washed 3 times with PBS and resuspended in 100 µ1L of PBS, and then the fluorescence signals were analyzed and detected using a flow cytometer (BD, Accuri C6). The binding capacity of the anti-ST2 antibodies to hST2 and cyno-ST2 on the cell line surfaces was measured in terms of the mean fluorescence intensity (MFI) of staining. The data were analyzed using GraphPad Prism5, and the EC₅₀ values were calculated. The EC₅₀ values for the binding of the anti-ST2 chimeric antibodies to hST2 and Cyno-ST2 at the cellular level are shown in Table 8 and FIGS. 7-8.

B1 and B2 are within 1.5-fold of each other in EC50: 0.647 nM for the first, 0.83 nM for the second.

Going from B3 to B4, the EC50 rises from 0.458 nM to 415 nM (910-fold). The first is the more potent here.

Going from B5 to B6, the EC50 rises from 0.394 nM to 105 nM (270-fold). The first is the more potent here.

B7 gave an EC50 of 0.487 nM.
